From the DeepSol protein solubility set

Assay: soluble on expression in E. coli; label from the status in PepcDB or PDB records

Soluble on expression in E. coli, not soluble:
MGSDKIHHHHHHMIRIANGQGFWGDWLEAPVRLVEQGPLDYLALDYLAEVTMSILQKQKQADPKLGYARDFPPLIARIAEQIRERGVTVIANAGGVNPVACAREVVRLAPGLKVAVVLGDDVYPRLDSFLAKGYEMRDMDTGEPIAAIRDRIQSANAYIGAFPLAEALGTGANVVIAGRSTDTALALAPMVHRFGWGPDAFDRLAAGTIAGHIIECGAQCTGGNCQVDWESIPDMANIGYPIVEAEPDGSFVVTKHPAAGGRVSLDSVKEQLLYELGDPQRYITPDCIADFTSVRLAADGPDRVRVTDIRGGPRPPSLKLSISYANGWKAVGTLVYSWPQALAKARAADRIVRERLRNLGLSFEEIHTEFFGVSACHGALAPPNPDPPEVQLRIGVRGQDKKAVDRFTRELIPLVLNGPPGATGFGEGRPPVREIVAYWSTLVPREEIDTRVEVVE, MGSDKIHHHHHHMIRILMGSYGSGKTEISINLALKLKSSGKDVSLVDLDVVTPYFRLRDLKKKLEELGIHVVTVGDNLRYSDLPIIPKNTDWLSSEEAVIDTGGEDGAKAVGALRHLMNGKNTHTYFVVNAFRPFCERPEDIIENLKKISTLSKMKIDFLINNSNLGDMTTAEVVLEGERIVSEVSRKTGIKVLFTVVPEELIDPPETDYPLFSIRRFMKRKLGIGGMRT, MGSDKIHHHHHHMISEISHDVIWDLYEGEDYRDKILAEKWDVVFGEKILEMEDTLFVQSLRELELALKYAAARKDLETIKARFNLLLYTPELQGAKIKEILFQVLKFYNSFSIFALVSEKGVHRHAYVDFVTGGNYLSLIYHEDLPLNINSHTVFIDDVPPDFSPAGLGGRKIILGMDSTPKNNIPFVEIPPLRERKMDIPYMLDGVIKSLQFQGKTVKIDDDLTKLLIEYHWPGNTQEFLEKVYEIITLENPVDQAMKIASGIDEIKGLNLKEFVDSLVEFVEKKVIKKALEENEGNRKKVCEVLNMNYKTLSYKMKKYGLT, MGSDKIHHHHHHMISMDEFIEFVRGGPLGPIKKWGTKWSLWPVHLVTACCGAELAHAFACGYDGERIGALNYGIARQTNLIIVEGAITRKMAKVLRITWEQMPDPKFVIVMGACGLQGGIFWNGYHMVKPSDVVPVDFFIPGCPPTPEALLRGIRQLQFKIETGEAKTSATFPEVPLEAGRKPRVLPKSPKKISKAPAVIVNAPKEVDWEFGQKLVEEIKAKVEAKSVTITGKNRIAVKVESDYIPRAAMRLREMGFDHVKNVNVIDVPNEDKFIVEYHFSSYSVKELMPVIVNVFADIPRENPRVKSLASMFPSADYMEREMHDFFGVIFEGNPWMGRKFLLAPDAPEFPLRKDFKLEEEVYVR, MGSDKIHHHHHHMISMTQNNVEKWGTYEITLKGKAEGNPFTDVEIKAVFTSEAGDSFEVEGFYDGEDTFKIRFMPNRTGLWKYEVRSDIKDLDGMKGEFLCVDPSEGNHGPVRVCNTYHFCYEDGTPYHPFGTTLYAWVHQREELIQQTLESLRNSPFNKVRMCVFPKYYAYNREEPPMLPMSWREEDGRYQVEFNVKFFQHFERLVKELMDMGIEADVILFHPYDKWGFCSMPEEVDKAYLRYLIARISSYRNVWWSMANEYDLIKPQKDWDGYFHFIVEKDPYNHLRSVHQCFKFYDHTKPWITHASIQWQGSLRSWSGEPEIDIGINLIPKWREMYKKPVIIDECGYEGNIEYGWGNLPPQEMMNRFWEGVTSGGYVTHGETYYSEDEVLWWSKGGRLKGESPKRIAFLRTIIEEAPPFLKPIKLDPMMDWDVHCIGKEGEYYLIYFDINRPVKRTLKLPEGKYRVDLVDCWETEIHSLGIFQGQVVIRLPGKSYVALRIQKMENNDDWIILREDAKL, MGSDKIHHHHHHMISTEYRPKSLLEEFVVCFYFNKSDNFEYADYANPTTNQEMFFNLGDDFELKNSIGQVTSQRSWISGLQSKSLPIKCSGRHITAGVIFKPWGLYAAFGINAKELANKTIYSKWLCDLSNELDNSEFSESQFFDLMEFNLLKSIKRSKMTKVMQKIVNEIEQENVFTLSEKLNRSKKTIIESFNKMIGLSPHKFYTLKCICETITLLQNNPTIKLTELAYNQGFYDQAHFIRVFKEHTGLTPKEFRNSIMKR, MGSDKIHHHHHHMITAAVVTFHTSRKDLIRLIDCVLQSSVDKFFIIDNSTNDALRELESVSERITYIYSDNLGFGSGHNIAIDRAIDLGSDYHIIINPDIYWNGDIIEQLVQFMDQNKDCGLVMPKILYPNGEVQYLCKLLPTPLDLFGRRFIPFKMFQEKRNAWYEMHWSGYDKVMEVPSLSGCFMFIRTDILKKTGGFDKRFFMYAEDMDLCRRIGEITRTMYYPSVLVFHEYEKGSYKNRKLLKYHICSIIKYFNKWGWFIDKKRRKKNDYCLKLTEHIRN
